Measured values: patent US20260242478A1 (published 2026)
Where no end group is shown, it is not given here.

Columns and labels:
PSMA Fab [1] = biological target: T1, PSMA Fab; test: clonal phage ELISA on captured PSMA Fab, wells pre-incubated with PSMA antigen as competitor, anti-M13-HRP detection;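 further: crude clonal phage supernatants added without washing after the PSMA preincubation, comparison wells received blocking buffer alone without PSMA, bound phage read after washing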
T1 construct: Biotinylated and captured on neutravidin plates in the phage ELISA; also called anti-PSMA Fab; 006 PSMA Fab
Experimental: (§1) Clonal phage were harvested as crude supernatants and screened via standard ELISAs. […] Prior to the addition of clonal phage. wells were incubated with blocking buffer and PSMA antigen or blocking buffer alone. Without washing or aspirating, clonal phage supernatants were then added to the wells and incubated for a short time. Wells were then washed followed by detection of bound phage using a horse radish conjugated anti-M13 antibody.

PSMA Fab [2] = biological target: T1, PSMA Fab; test: clonal phage ELISA on biotinylated PSMA Fab captured on neutravidin plates, anti-M13-HRP detection, no PSMA antigen
Experimental: as §1

Anti-PSMA Fab [3] = biological target: T2, Anti-PSMA Fab; test: phage ELISA; PSMA Fab on plate pre-incubated with PSMA antigen (competitor), anti-M13-HRP detection
T2 construct: Biotinylated and captured on neutravidin coated plates in the panning ELISA; also called 006 PSMA Fab
Experimental: as §1

Anti-PSMA Fab [4] = biological target: T2, Anti-PSMA Fab; test: phage ELISA; biotinylated PSMA Fab on neutravidin plate, clonal phage supernatant, anti-M13-HRP detection;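 further: wells were preincubated with blocking buffer containing PSMA antigen or with blocking buffer only, then phage supernatant was added without washing for a brief incubation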
Experimental: as §1

PSMA Fab (006 PSMA Fab) [5] = biological target: T3, PSMA Fab (006 PSMA Fab); test: phage ELISA; clonal phage supernatant on biotinylated PSMA Fab captured on neutravidin plate, anti-M13 HRP detection
T3 construct: also called Anti-PSMA Fab; anti-PSMA Fab
Experimental: as §1

PSMA Fab (006 PSMA Fab) [6] = biological target: T3, PSMA Fab (006 PSMA Fab); test: phage ELISA; clonal phage on plate-captured PSMA Fab pre-incubated with PSMA antigen as competitor, anti-M13 HRP detection
Experimental: as §1

006 PSMA Fab [7] = biological target: T4, 006 PSMA Fab (biotinylated (site not stated)); test: clonal phage ELISA on biotinylated PSMA Fab captured on neutravidin, anti-M13-HRP detection;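 further: crude clonal phage supernatants added to wells preincubated with PSMA antigen in blocking buffer or with blocking buffer alone, brief binding period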
T4 construct: also called Anti-PSMA Fab

006 PSMA Fab [8] = biological target: T4, 006 PSMA Fab; test: clonal phage ELISA on captured PSMA Fab, wells pre-incubated with PSMA antigen as competitor
Experimental: as §1

Binder | Phage binding ELISA signal, Anti-PSMA Fab in presence of PSMA (Anti-PSMA Fab [3]) | Phage binding ELISA signal, Anti-PSMA Fab (Anti-PSMA Fab [4]) | Phage binding ELISA signal, Anti-PSMA Fab (PSMA Fab (006 PSMA Fab) [5]) | Phage binding ELISA signal, Anti-PSMA Fab with PSMA antigen (PSMA Fab (006 PSMA Fab) [6]) | further results
IERMCRPAWMCDGF [Phage-2896] | – | – | – | – | phage binding ELISA signal in presence of PSMA (PSMA Fab [1]): 0.188; phage binding ELISA signal (PSMA Fab [2]): 2.35
VEPSCVPYWMCLGF (cysteine pairing not given here; also: peptide displayed as fusion to phage pIII, also called peptide-180 library clone) [Phage-2906] | 0.0835 | 2.33 | – | – | –
PSHYCVPAWMCAGF (cysteine pairing not given here; also: peptide displayed as fusion to phage pIII) [Phage-2905] | – | – | – | – | phage binding ELISA signal in presence of PSMA (PSMA Fab [1]): 0.0875; phage binding ELISA signal (PSMA Fab [2]): 2.33
VTPACVPTWMCYGF [Phage-2903] | – | – | – | – | phage binding ELISA signal in presence of PSMA (PSMA Fab [1]): 0.116; phage binding ELISA signal (PSMA Fab [2]): 2.34
VDRMCKPTWMCEGF (tested as crude phage supernatant) [Phage-2926] | – | – | 2.31 | 0.12 | –
LDVLCKPTWMCMGF (also called peptide-180 library clone) [Phage-2917] | 0.0821 | 2.32 | – | – | –
GLALCKPEWMCIGF (also called peptide-180 library clone) [Phage-2914] | 0.0815 | 2.32 | – | – | –
GEPVCKPAWMCEGF (also called peptide-180 library clone) [Phage-2909] | 0.128 | 2.33 | – | – | –
MEIRCTPPWMCMGF [Phage-2899] | – | – | – | – | phage binding ELISA signal in presence of PSMA (PSMA Fab [1]): 0.0795; phage binding ELISA signal (PSMA Fab [2]): 2.34
AVHYCQPSWMCTGF (also called peptide-180 library clone) [Phage-2912] | 0.0814 | 2.33 | – | – | –
IKPFCVPEWMCVAL (tested as crude phage supernatant) [Phage-2927] | – | – | 2.31 | 0.121 | –
VFPACVPNWMCVGF [Phage-2904] | – | – | – | – | phage binding ELISA signal in presence of PSMA (PSMA Fab [1]): 0.129; phage binding ELISA signal (PSMA Fab [2]): 2.33
IHPVCKPDWMCAGF (cysteine pairing not given here; also: peptide fused to pIII, Peptide-180 library clone, tested as clonal phage (peptide fused to pIII)) [Phage-2935] | – | – | – | – | Phage binding ELISA signal, Anti-PSMA Fab (006 PSMA Fab [7]): 2.29; Phage binding ELISA signal, Anti-PSMA Fab in presence of PSMA (006 PSMA Fab [8]): 0.0823
VDPMCIPRWMCSFL (also called peptide-180 library clone) [Phage-2919] | 0.0867 | 2.32 | – | – | –
VWPRCEPQWMCAGF (cysteine pairing not given here; also: peptide displayed as fusion to phage pIII, tested as crude phage supernatant; The label 2923 is printed twice (r2444 and r2446); by the order this row is probably Phage-2922; also called probably Phage-2922) [Phage-2923 (as printed at r2443/r2444; SEQ ID NO: 3238)] | – | – | 2.31 | 0.0854 | –
GGLLCKPAWMCNWL (also called peptide-180 library clone) [Phage-2915] | 0.116 | 2.32 | – | – | –
QALMCVPEWMCLGF [Phage-2895] | – | – | – | – | phage binding ELISA signal in presence of PSMA (PSMA Fab [1]): 0.1; phage binding ELISA signal (PSMA Fab [2]): 2.35
VERACVPVWMCEGF (tested as crude phage supernatant) [Phage-2933] | – | – | 2.29 | 0.11 | –
NWPVCKPMWMCTGF [Phage-2898] | – | – | – | – | phage binding ELISA signal in presence of PSMA (PSMA Fab [1]): 0.155; phage binding ELISA signal (PSMA Fab [2]): 2.34
VDRMCVPKWMCEGL (also called peptide-180 library clone) [Phage-2916] | 0.0971 | 2.32 | – | – | –
VEQMCKPEWMCKGF (tested as crude phage supernatant) [Phage-2931] | – | – | 2.3 | 0.109 | –
VPKMCTPPWMCWGF (tested as crude phage supernatant) [Phage-2923] | – | – | 2.31 | 0.0934 | –

Binder | Phage binding ELISA signal, Anti-PSMA Fab in presence of PSMA (Anti-PSMA Fab [3]) | Phage binding ELISA signal, Anti-PSMA Fab (Anti-PSMA Fab [4]) | Phage binding ELISA signal, Anti-PSMA Fab (PSMA Fab (006 PSMA Fab) [5]) | Phage binding ELISA signal, Anti-PSMA Fab with PSMA antigen (PSMA Fab (006 PSMA Fab) [6]) | further results
LPRICVPEWMCLGF (also called peptide-180 library clone) [Phage-2918] | 0.0919 | 2.32 | – | – | –
PWLMCKPAWMCTGF [Phage-2900] | – | – | – | – | phage binding ELISA signal in presence of PSMA (PSMA Fab [1]): 0.183; phage binding ELISA signal (PSMA Fab [2]): 2.34
IDPMCKPLWMCAGF (cysteine pairing not given here; also: peptide displayed as fusion to phage pIII, Peptide-180 library clone, tested as clonal phage (peptide fused to pIII)) [Phage-2936] | – | – | – | – | Phage binding ELISA signal, Anti-PSMA Fab (006 PSMA Fab [7]): 2.29; Phage binding ELISA signal, Anti-PSMA Fab in presence of PSMA (006 PSMA Fab [8]): 0.145
VTPKCVPMWMCAGF [Phage-2901] | – | – | – | – | phage binding ELISA signal in presence of PSMA (PSMA Fab [1]): 0.123; phage binding ELISA signal (PSMA Fab [2]): 2.34
EFNWCRPLWMCVGF (cysteine pairing not given here; also: peptide displayed as fusion to phage pIII, Peptide-180 library clone, tested as clonal phage (peptide fused to pIII of the bacteriophage)) [Phage-2934] | – | – | – | – | Phage binding ELISA signal, Anti-PSMA Fab (006 PSMA Fab [7]): 2.29; Phage binding ELISA signal, Anti-PSMA Fab in presence of PSMA (006 PSMA Fab [8]): 0.157
EKPVCVPSWMCTGF (also called peptide-180 library clone) [Phage-2911] | 0.098 | 2.33 | – | – | –
HDKLCRPAWMCNGF [Phage-2897] | – | – | – | – | phage binding ELISA signal in presence of PSMA (PSMA Fab [1]): 0.107; phage binding ELISA signal (PSMA Fab [2]): 2.35
TQALCVPSWMCDGF (tested as crude phage supernatant) [Phage-2930] | – | – | 2.3 | 0.0747 | –
LGLACIPEWMCVGF (also called peptide-180 library clone) [Phage-2908] | 0.0789 | 2.33 | – | – | –
AVPLCMPKWMCTGF (also called peptide-180 library clone) [Phage-2910] | 0.0971 | 2.33 | – | – | –
LAIMCRPAWMCSGF (tested as crude phage supernatant) [Phage-2920] | – | – | 2.31 | 0.112 | –
MHMLCRPAWMCSGF (tested as crude phage supernatant) [Phage-2932] | – | – | 2.29 | 0.21 | –
AEMRCIPEWMCSGF (also called peptide-180 library clone) [Phage-2907] | 0.118 | 2.33 | – | – | –
NIPHCVPAWMCIGF (tested as crude phage supernatant) [Phage-2929] | – | – | 2.31 | 0.109 | –
VFPMCKPAWMCLGF (Peptide-180 library clone, tested as clonal phage (peptide fused to pIII)) [Phage-2937] | – | – | – | – | Phage binding ELISA signal, Anti-PSMA Fab (006 PSMA Fab [7]): 2.29; Phage binding ELISA signal, Anti-PSMA Fab in presence of PSMA (006 PSMA Fab [8]): 0.319
QTVMCRPAWMCVGF [Phage-2902] | – | – | – | – | phage binding ELISA signal in presence of PSMA (PSMA Fab [1]): 0.092; phage binding ELISA signal (PSMA Fab [2]): 2.34
GERWCTPPWMCVGL (also called peptide-180 library clone) [Phage-2913] | 0.116 | 2.32 | – | – | –
ISHMCKPVWMCSGL (tested as crude phage supernatant) [Phage-2921] | – | – | 2.31 | 0.125 | –
VGKMCVPEWMCHGF (tested as crude phage supernatant) [Phage-2924] | – | – | 2.31 | 0.082 | –
TPIFCVPAWMCSGF (tested as crude phage supernatant) [Phage-2925] | – | – | 2.31 | 0.0946 | –
IVPACKPVWMCDGF (tested as crude phage supernatant) [Phage-2928] | – | – | 2.31 | 0.11 | –
